This note sets out measurements from doi:10.1101/2022.10.11.511805 (bioRxiv, 2022).

Assay [1] concerns the target T1, cleaved GP (GPCL): EBOV GP treated with thermolysin, glycan cap removed (Zaire ebolavirus, Mayinga-76, UniProt Q05320). In words: SEC.
Target sequence in this assay (Q05320 33-501, chain 1 of 2): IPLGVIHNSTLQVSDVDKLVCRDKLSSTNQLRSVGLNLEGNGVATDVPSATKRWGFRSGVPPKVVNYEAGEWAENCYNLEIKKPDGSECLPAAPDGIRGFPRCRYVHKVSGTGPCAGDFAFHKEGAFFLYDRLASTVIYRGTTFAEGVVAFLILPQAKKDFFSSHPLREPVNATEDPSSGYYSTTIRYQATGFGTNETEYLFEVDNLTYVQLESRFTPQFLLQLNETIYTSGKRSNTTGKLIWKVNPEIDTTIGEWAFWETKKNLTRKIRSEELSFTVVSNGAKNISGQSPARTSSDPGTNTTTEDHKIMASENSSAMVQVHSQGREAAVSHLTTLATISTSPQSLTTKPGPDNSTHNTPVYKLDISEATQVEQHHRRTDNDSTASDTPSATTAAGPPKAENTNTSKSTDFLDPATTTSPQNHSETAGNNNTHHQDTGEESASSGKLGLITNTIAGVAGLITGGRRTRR
Target sequence in this assay (Q05320 33-650, chain 2 of 2): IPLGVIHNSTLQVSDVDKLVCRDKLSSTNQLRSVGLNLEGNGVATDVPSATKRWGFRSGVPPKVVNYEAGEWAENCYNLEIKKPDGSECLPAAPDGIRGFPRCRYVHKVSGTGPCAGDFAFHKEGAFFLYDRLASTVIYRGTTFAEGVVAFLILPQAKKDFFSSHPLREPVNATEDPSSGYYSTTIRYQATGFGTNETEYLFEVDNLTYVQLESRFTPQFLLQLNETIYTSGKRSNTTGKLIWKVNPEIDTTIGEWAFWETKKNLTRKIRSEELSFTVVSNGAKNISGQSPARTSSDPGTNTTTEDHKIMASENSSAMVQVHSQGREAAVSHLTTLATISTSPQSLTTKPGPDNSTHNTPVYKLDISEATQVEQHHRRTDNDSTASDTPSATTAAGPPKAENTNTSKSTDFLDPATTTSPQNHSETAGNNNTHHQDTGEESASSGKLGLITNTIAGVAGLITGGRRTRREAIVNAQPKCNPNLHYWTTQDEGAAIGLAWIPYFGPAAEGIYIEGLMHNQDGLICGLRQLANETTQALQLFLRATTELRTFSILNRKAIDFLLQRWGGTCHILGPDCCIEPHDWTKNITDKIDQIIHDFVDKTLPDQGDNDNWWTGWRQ
Assay [2] has as its target T1, cleaved GP (GPCL): EBOV GP treated with …. In words: SPR.

B1: REGN3470 Fab (Fab, V domains shown)
VH: QVQLVESGGGVVQPGRSLRLSCAASGFTFNNYGMHWVRQAPGMGLEWVAVIWHDGSDKYYADSVKGRFTISRDNSKNTLYLQMNSLRAEDTAVYYCARNWNLFDYWGQGTLVTVSS
VL: DIQMTQSPSSLSASVGDRITITCRASQSISTYLHWYQQKPGKAPKLLIYAASTLQSGVPSRFSGSGSGTDFTLTISSLQPEDFATYYCQQSFSTPPINFGQGTKLEIK
Take B1: in assay [1], the binding result is listed as “no binding”.

B2: REGN3471 (odesivimab) (antibody, V domains shown)
VH: EVQLVESGGGLVQPGGSLRLSCAASGFTFSSYDMHWVRQATGKGLEWVSAIGTAGDTYYPGSVKGRFTISRENAKNSLYLQMNSLRAGDTAVYYCARTWFGELYFDYWGQGTLVTVSS
VL: not shown
As for B2, in assay [2], the Kd worked out at 15.8 nM and the “fold reduction of the binding half-life relative to GP” value was determined as 4 fold.

B3: REGN3479 (maftivimab) (antibody, V domains shown)
VH: EVQLVESGGGLVQPGGSLRLSCAASGFTSSSYAMNWVRQAPGKGLEWVSTISGMGGSTYYADSVKGRFTISRDNSKNTLYLQMNSLRAEDTAVYYCAKRGYPHSFDIWGQGTMVTVSS
VL: not shown
With B3, binding in assay [2] was put at a Kd of 0.14 nM. This lies in the sub-nanomolar range.
